± gives the uncertainty stated by the source.
Assay: protein stability index of a GFP-peptide fusion (yeast GPS) (PSI 1-4); higher = more stable; sorted into four equal gates, so the index is relative within each strain
Conditions: pdr5∆
Procedure, shortened: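 For each peptide, the protein stability index sums the read frequency in every gate after multiplying it by the gate number. Read frequencies came from plasmids that were PCR-amplified from each gate and Illumina-sequenced, with reads assigned to strains by barcodes. The gates were four equal bins of GFP/Cherry fluorescence ratio applied to mid-log yeast in leucine-free medium carrying a pooled library of tiled 17-residue yeast protein peptides fused downstream of GFP on a Cherry-expressing plasmid.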

Point of comparison: TPNTNSNSTPNANQQFL [SWI1], protein stability index 3.15 ± 0.047. Against it:
- TPLTENILIASLMDTLI [YCG1] — lower, 1.7 ± 0.04

Same assay, conditions: san1∆

Point of comparison: TKSKNKTLIGLQGIVIW [POP4], protein stability index 2.76 ± 0.044. Against it:
- SVMMQDSPASNEDDLTV [RPO31] — within error, 2.78 ± 0.076
- SVQNLDQLLTDLIETSF [NUT1] — higher, 2.94 ± 0.066
- SVRGAIVGPDLAVLALV [RPS6A] — lower, 1.14 ± 0.11
- SVRKFLEIALFKYRKAR [RPO31] — lower, 1.36 ± 0.17
- SVRLFSFLDPLNYGNIC [YJL039C/NUP192] — lower, 2.47 ± 0.061
- SVSSPIELNFDAVKDFK [QCR2] — lower, 2.5 ± 0.09
- SVTRAGNIISSDKTIVP [SIN4] — higher, 2.97 ± 0.12
- SWSNGKITSPIRSVALN [RRP42] — within error, 2.66 ± 0.091
- SWSSSAAVIMRCKIYFF [PCI8] — lower, 1.34 ± 0.11
- SYANHLEESDVEDTLHV [YOR098C/NUP1] — lower, 2.13 ± 0.081
- SYHLWPSFTDEQWITIE [PRP8] — within error, 2.82 ± 0.09
- SYLISHKDSFYDRATLT [RPO31] — lower, 2.21 ± 0.065
- SYLSETLISRISSLFTI [YML103C/NUP188] — lower, 1.5 ± 0.074
- SYSGYDIEDALVLNKSS [RET1] — lower, 2.18 ± 0.071
- SYSPTSPSYSPTSPAYS [RPO21] — within error, 2.73 ± 0.062
- SYTAFSRLTLLLRALKT [PRP8] — lower, 1.24 ± 0.082
- SYWQKSYFKNSVIVKFH [LIN1] — lower, 2.42 ± 0.06
- TAAETFKLFNKYRPETA [RPL8A] — lower, 2.64 ± 0.072
- TAAQVANVELTPSNIRS [RPC34] — within error, 2.8 ± 0.085
- TAELIKELKEKEAAESP [PUP2] — higher, 3.21 ± 0.12
- TAKKDMSSTTPKLESVK [SNF12] — higher, 3.1 ± 0.042
- TAKRKSRKRKPKSASNT [IRR1] — within error, 2.6 ± 0.26
- TAMKKVEDGNILVFQVS [RPL25] — lower, 2.48 ± 0.052
- TAQEINFKMLVLLATWN [IRR1] — lower, 2.14 ± 0.051
- TASDQLFGMCESLYEPN [PUP3] — within error, 2.71 ± 0.084
- TATTGKRKPAKSSSNRS [RPN4] — within error, 2.68 ± 0.047
- TAVNGIDTDLFGAPNNP [YGL172W/NUP49] — higher, 3.25 ± 0.058
- TAVVNNAAPANVTGGKA [SWI1] — lower, 2.37 ± 0.093
- TCGSKGSTLNVSQMVAV [RPO31] — within error, 2.91 ± 0.15
- TCSCCKKTVAGGAYTVS [RPL43A] — lower, 1.76 ± 0.086
- TCSYVEEAGSPLVYRHE [RPB9] — higher, 3.28 ± 0.11
- TDLENSSLFQEKLLETN [ECM29] — lower, 2.49 ± 0.056
- TDLRLSTNGLGMCQLYF [SNU114] — within error, 2.98 ± 0.23
- TDNVSMYPSPTGVMIGI [PRP8] — lower, 2.02 ± 0.086
- TEAAFTKLDQVWGSETV [RPL4A] — higher, 3.07 ± 0.067
- TEKDDNKTNNEDLFDDY [NUT1] — higher, 3.01 ± 0.052
- TELVDGRENFVYANNPE [SIR3] — higher, 3.05 ± 0.13
- TERVVEIGPSPTLAGMA [FAS2] — lower, 2.496 ± 0.019
- TESLRVENSVLIEKVDD [YIL149C/MLP2] — within error, 2.63 ± 0.14
- TESVPEPKLFRMRIFAS [RPL20A] — higher, 3.02 ± 0.13
- TETEVEREQPQENKNID [SRB4] — higher, 3.07 ± 0.068
- TFAKSKNYSRPSTAIHT [SIR4] — lower, 1.53 ± 0.1
- TFLSEWGMEPLEDYVPH [RPB2] — higher, 3.13 ± 0.12
- TFNNQDKGLLPYAIMET [RPO31] — lower, 1.44 ± 0.075
- TFTFTAHMGVLLVLLQD [SWP82] — lower, 1.41 ± 0.087
- TGAGAFGTGQSTFGFNN [YJL041W/NSP1] — higher, 3.02 ± 0.058
- TGEFDFEAAVKMSDGFN [RPT4] — within error, 2.57 ± 0.18
- TGHPKGAAGAWMMNGAL [FAS2] — lower, 1.43 ± 0.12
- TGKTLLAKAVAATIGAN [RPT4] — lower, 1.68 ± 0.16
- TGKTLLARACAAQTNAT [RPT5] — higher, 2.9 ± 0.096
- TGKYGVRYGSSLRRQVK [RPL43A] — higher, 3.42 ± 0.057
- TGMSSMSPFLRKVVKPS [SRB4] — lower, 1.97 ± 0.12
- TGSLMGGNSTQNTSNMN [YGR119C/NUP57] — higher, 3.07 ± 0.052
- TGYDLSNSVFSPDGRNF [PRE10] — lower, 2.52 ± 0.13
- THEDLPKEVDGLEVGPV [IRR1] — higher, 3.06 ± 0.094
- THPKDTFYITREKYNMK [ARP9] — higher, 3.07 ± 0.06
- TIFKYLTDKDAFETHYR [CDC53] — higher, 3.09 ± 0.049
- TIISPHKDIPEEDFYTV [DSN1] — within error, 2.44 ± 0.28
- TIKILPENTAMFNPLHE [YMR129W/POM152] — lower, 2.36 ± 0.058
- TIRLWECGTGTTIHTFN [RPN14] — lower, 2.21 ± 0.12
- TIRYLMQKQHEMKTQAA [SNF6] — higher, 2.99 ± 0.046
- TISVPQIRDVMERFSVL [RRP6] — lower, 2.5 ± 0.12
- TITKRNGAFQNSSNLSY [RRP4] — higher, 3.1 ± 0.04
- TKDIFPLQNIHVRKVKL [RPS1A] — lower, 2.6 ± 0.072
- TKFKGGKRQLMKAVGEY [SEC65] — higher, 3.26 ± 0.056
- TKISTLAVKVHGGSRYA [QCR2] — lower, 1.18 ± 0.29
- TKLNLHCVIEDDESEQI [RRI1] — within error, 2.69 ± 0.12
- TKLTTCKRELAFVKQKN [YIL149C/MLP2] — lower, 1.54 ± 0.11
- TKNDAGSKQILKTEAAN [BRR2] — higher, 2.93 ± 0.039
- TKPAIRRLARRGGVKRI [HHF1] — higher, 3 ± 0.16
- TKPSETPATIVKKPTFT [YOR098C/NUP1] — higher, 3.09 ± 0.043
- TKSSKEFFNTLRKSRET [RRI2] — higher, 3.06 ± 0.074
- TKVNNQLIKVAVHNGDR [RPL9B] — lower, 1.78 ± 0.086
- TLASLIRYNSVEIQEVP [RPC82] — lower, 2.48 ± 0.12
- TLDKKDSIPLRITNSFY [RPN9] — higher, 2.9 ± 0.096
- TLDVEAFKSVVSTETFE [RPL27A] — lower, 2.59 ± 0.051
- TLEDALRRIITDLNQDS [GRR1] — lower, 2.1 ± 0.067
- TLEDKFLLLAVNKYGLR [ISW2] — lower, 1.9 ± 0.11
- TLESLENLVVADLESFA [COR1] — lower, 2.44 ± 0.065
- TLGNLIRAELLNDRKVL [RPB11] — higher, 3.08 ± 0.15
- TLGNQMLSAHNIIESIA [YJR042W/NUP85] — lower, 2.53 ± 0.14
- TLLSPKDNGMLIIDGQI [RPO21] — within error, 2.81 ± 0.074
- TLNPDLFLYKELVKAHL [RPC82] — higher, 2.95 ± 0.053
- TLRKELEQIQVQLKDAN [YIL149C/MLP2] — within error, 2.67 ± 0.096
- TLSHLRRTNTPIGRDGK [RPB2] — lower, 2.24 ± 0.057
- TLVEIFLERKCVHMVYE [SSN3] — lower, 1.52 ± 0.11
- TLVSTDNYFNLQLNEAE [SMX3] — within error, 2.82 ± 0.053
- TMGGNAELELVDSLDPF [SMC4] — higher, 3.39 ± 0.074
- TMGMRALLKLSVKLKQK [DIS3] — lower, 1.21 ± 0.072
- TMQPPYIQERLKSLNDI [MED11] — higher, 3.13 ± 0.068
- TNFEILNEMLNTRKNMS [DIS3] — higher, 3.06 ± 0.054
- TNFSPTPANNGENAAEK [SNF2] — lower, 2.21 ± 0.074
- TNHSAAASTPTTTATPH [PGD1] — higher, 2.99 ± 0.027
- TNILISPLNTTTKILGD [YML103C/NUP188] — lower, 2.04 ± 0.086
- TNNVLRKLGLLGDKEDE [MTW1] — lower, 1.85 ± 0.085
- TNPSSIFGGAGGVPTTS [YOR098C/NUP1] — lower, 2.15 ± 0.086
- TPAELVGKFLGYVSSLV [FAS1] — lower, 1.73 ± 0.081
- TPEYAAEKVKVRDELRK [UBP6] — lower, 1.42 ± 0.14
- TPIIFIGTGEHIHDLEK [SRP54] — the same, 2.76 ± 0.068
- TPLTENILIASLMDTLI [YCG1] — lower, 2.07 ± 0.069
- TPNTNSNSTPNANQQFL [SWI1] — higher, 2.93 ± 0.053

Same assay, conditions: ubr1∆

For SVLQLIVSEDHIILDTI [MED1], the protein stability index was 2.08 ± 0.26.
